Experimental data: patent US20070219139A1 (POSCO, published 2007)
Where no end group is shown, it is not given here. [ ]: non-standard residue; d: D form.

B1: Trp-Lys-Tyr-Met-Val-Gly-NH2 (peptide)
peptide: WKYMVG-NH2
B2: Trp-Lys-His-Met-Val-D-Met-NH2 (peptide)
peptide: WKHMV[dM]-NH2
modifications: N-terminus assumed
SMILES: CSCC[C@H](NC(=O)[C@H](Cc1c[nH]cn1)NC(=O)[C@H](CCCCN)NC(=O)[C@@H](N)Cc1c[nH]c2ccccc12)C(=O)N[C@H](C(=O)N[C@H](CCSC)C(N)=O)C(C)C
B3: Trp-Lys-Tyr-Met-Val-Trp-NH2 (peptide)
peptide: WKYMVW-NH2
B4: Trp-Lys-Glu-Met-Val-D-Met-NH2 (peptide)
peptide: WKEMV[dM]-NH2
modifications: N-terminus assumed
SMILES: CSCC[C@H](NC(=O)[C@H](CCC(=O)O)NC(=O)[C@H](CCCCN)NC(=O)[C@@H](N)Cc1c[nH]c2ccccc12)C(=O)N[C@H](C(=O)N[C@H](CCSC)C(N)=O)C(C)C
B5: Lys-Tyr-Met-Val-NH2 (peptide)
peptide: KYMV-NH2
B6: Trp-Lys-Tyr-Met-Val-Val-NH2 (peptide)
peptide: WKYMVV-NH2
B7: Trp-His-Tyr-Met-Val-D-Met-NH2 (peptide)
peptide: WHYMV[dM]-NH2
modifications: N-terminus assumed
SMILES: CSCC[C@H](NC(=O)[C@H](Cc1ccc(O)cc1)NC(=O)[C@H](Cc1c[nH]cn1)NC(=O)[C@@H](N)Cc1c[nH]c2ccccc12)C(=O)N[C@H](C(=O)N[C@H](CCSC)C(N)=O)C(C)C
B8: Trp-Asp-Tyr-Met-Val-D-Met-NH2 (peptide)
peptide: WDYMV[dM]-NH2
modifications: N-terminus assumed
SMILES: CSCC[C@H](NC(=O)[C@H](Cc1ccc(O)cc1)NC(=O)[C@H](CC(=O)O)NC(=O)[C@@H](N)Cc1c[nH]c2ccccc12)C(=O)N[C@H](C(=O)N[C@H](CCSC)C(N)=O)C(C)C
B9: Met-Val-D-Met-NH2 (peptide)
peptide: Met-Val-[dM]-NH2
modifications: N-terminus assumed
SMILES: CSCC[C@H](N)C(=O)N[C@H](C(=O)N[C@H](CCSC)C(N)=O)C(C)C
B10: Tyr-Met-Val-D-Met-NH2 (peptide)
peptide: YMV[dM]-NH2
B11: Trp-Lys-Asp-Met-Val-D-Met-NH2 (peptide)
peptide: WKDMV[dM]-NH2
modifications: N-terminus assumed
SMILES: CSCC[C@H](NC(=O)[C@H](CC(=O)O)NC(=O)[C@H](CCCCN)NC(=O)[C@@H](N)Cc1c[nH]c2ccccc12)C(=O)N[C@H](C(=O)N[C@H](CCSC)C(N)=O)C(C)C
B12: Trp-Lys-Tyr-Met-Val-NH2 (peptide)
peptide: WKYMV-NH2
B13: Trp-Lys-Tyr-Met-Gly-D-Met-NH2 (peptide)
peptide: WKYMG[dM]-NH2
modifications: N-terminus assumed
SMILES: CSCC[C@H](NC(=O)[C@H](Cc1ccc(O)cc1)NC(=O)[C@H](CCCCN)NC(=O)[C@@H](N)Cc1c[nH]c2ccccc12)C(=O)NCC(=O)N[C@H](CCSC)C(N)=O
B14: Trp-Arg-Tyr-Met-Val-D-Met-NH2 (peptide)
peptide: WRYMV[dM]-NH2
modifications: N-terminus assumed
SMILES: CSCC[C@H](NC(=O)[C@H](Cc1ccc(O)cc1)NC(=O)[C@H](CCCNC(=N)N)NC(=O)[C@@H](N)Cc1c[nH]c2ccccc12)C(=O)N[C@H](C(=O)N[C@H](CCSC)C(N)=O)C(C)C
B15: Trp-Lys-Trp-Met-Val-D-Met-NH2 (peptide)
peptide: WKWMV[dM]-NH2
modifications: N-terminus assumed
SMILES: CSCC[C@H](NC(=O)[C@H](Cc1c[nH]c2ccccc12)NC(=O)[C@H](CCCCN)NC(=O)[C@@H](N)Cc1c[nH]c2ccccc12)C(=O)N[C@H](C(=O)N[C@H](CCSC)C(N)=O)C(C)C
B16: Trp-Glu-Tyr-Met-Val-D-Met-NH2 (peptide)
peptide: WEYMV[dM]-NH2
modifications: N-terminus assumed
SMILES: CSCC[C@H](NC(=O)[C@H](Cc1ccc(O)cc1)NC(=O)[C@H](CCC(=O)O)NC(=O)[C@@H](N)Cc1c[nH]c2ccccc12)C(=O)N[C@H](C(=O)N[C@H](CCSC)C(N)=O)C(C)C
B17: Trp-Lys-Phe-Met-Val-D-Met-NH2 (peptide)
peptide: WKFMV[dM]-NH2
modifications: N-terminus assumed
SMILES: CSCC[C@H](NC(=O)[C@H](Cc1ccccc1)NC(=O)[C@H](CCCCN)NC(=O)[C@@H](N)Cc1c[nH]c2ccccc12)C(=O)N[C@H](C(=O)N[C@H](CCSC)C(N)=O)C(C)C
B18: Trp-Lys-Tyr-Met-Tyr-D-Met-NH2 (peptide)
peptide: WKYMY[dM]-NH2
modifications: N-terminus assumed
SMILES: CSCC[C@H](NC(=O)[C@H](Cc1ccc(O)cc1)NC(=O)[C@H](CCCCN)NC(=O)[C@@H](N)Cc1c[nH]c2ccccc12)C(=O)N[C@@H](Cc1ccc(O)cc1)C(=O)N[C@H](CCSC)C(N)=O
B19: Trp-Lys-Arg-Met-Val-D-Met-NH2 (peptide)
peptide: WKRMV[dM]-NH2
modifications: N-terminus assumed
SMILES: CSCC[C@H](NC(=O)[C@H](CCCNC(=N)N)NC(=O)[C@H](CCCCN)NC(=O)[C@@H](N)Cc1c[nH]c2ccccc12)C(=O)N[C@H](C(=O)N[C@H](CCSC)C(N)=O)C(C)C
B20: Trp-Lys-Tyr-Met-Val-Arg-NH2 (peptide)
peptide: WKYMVR-NH2
B21: Trp-Lys-Gly-Met-Val-D-Met-NH2 (peptide)
peptide: WKGMV[dM]-NH2
modifications: N-terminus assumed
SMILES: CSCC[C@H](NC(=O)CNC(=O)[C@H](CCCCN)NC(=O)[C@@H](N)Cc1c[nH]c2ccccc12)C(=O)N[C@H](C(=O)N[C@H](CCSC)C(N)=O)C(C)C
B22: Trp-Lys-Tyr-Met-Val-Glu-NH2 (peptide)
peptide: WKYMVE-NH2

Tests used:
Assay in all cases: cell-based or functional assay
[1] = biological target: T1, formyl peptide receptor (UniProt P21462 1-350, limits assumed)
T1 sequence (looked up): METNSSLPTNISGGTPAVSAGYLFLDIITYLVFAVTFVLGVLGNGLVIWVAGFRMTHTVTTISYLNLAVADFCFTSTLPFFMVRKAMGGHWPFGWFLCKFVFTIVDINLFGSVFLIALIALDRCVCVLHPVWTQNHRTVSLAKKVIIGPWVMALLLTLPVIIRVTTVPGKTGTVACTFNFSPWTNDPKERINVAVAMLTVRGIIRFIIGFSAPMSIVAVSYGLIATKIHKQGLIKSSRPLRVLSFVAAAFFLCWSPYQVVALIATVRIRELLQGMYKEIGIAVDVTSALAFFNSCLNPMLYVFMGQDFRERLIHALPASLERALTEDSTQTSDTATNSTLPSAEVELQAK

[2] = biological target: T2, formyl peptide receptor-like 1 (UniProt P25090 1-351, limits assumed)
T2 sequence (looked up): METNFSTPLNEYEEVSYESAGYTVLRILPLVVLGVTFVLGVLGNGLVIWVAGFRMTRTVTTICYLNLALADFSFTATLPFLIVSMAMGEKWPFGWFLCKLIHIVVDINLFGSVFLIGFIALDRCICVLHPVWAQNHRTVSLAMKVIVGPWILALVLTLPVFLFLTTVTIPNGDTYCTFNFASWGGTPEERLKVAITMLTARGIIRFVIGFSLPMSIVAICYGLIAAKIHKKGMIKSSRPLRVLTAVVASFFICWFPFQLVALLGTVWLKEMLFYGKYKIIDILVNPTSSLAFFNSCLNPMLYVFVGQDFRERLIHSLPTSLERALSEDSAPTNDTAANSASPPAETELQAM

[3] = biological target: T1, formyl peptide receptor; remark: listed apart in the source

Row | Binder | [Ca^2+]i increase in FPR-expressing RBL-2H3 cells [1] | EC50 of intracellular calcium increase in FPRL1-expressing RBL-2H3 cells (fura-2) [2] | EC50 of intracellular calcium increase in FPR-expressing RBL-2H3 cells (fura-2) [3]
1 | B1 | > 20 µM | 5950 nM | 
2 | B2 |  | 1.94 nM | 280 nM
3 | B3 | > 20 µM | 194 nM | 
4 | B4 |  | 28.3 nM | 1330 nM
5 | B5 |  | > 30000 nM | 
6 | B6 | > 20 µM | 1260 nM | 
7 | B7 |  | 0.72 nM | 31.7 nM
8 | B8 |  | 14.3 nM | 98.9 nM
9 | B9 |  | > 30000 nM | 
10 | B10 |  | 17.1 nM | 569 nM
11 | B11 |  | 8.73 nM | 1330 nM
12 | B12 |  | 918 nM | 
13 | B13 | > 20 µM | 18.1 nM | 
14 | B14 |  | 0.12 nM | 54.9 nM
15 | B15 |  | 0.16 nM | 18.8 nM
16 | B16 |  | 5.23 nM | 317 nM
17 | B17 |  | 0.23 nM | 17.7 nM
18 | B18 |  | 0.29 nM | 665 nM
19 | B19 |  | 2.06 nM | 
20 | B20 | > 20 µM | 178 nM | 
21 | B21 | > 20 µM | 21.3 nM | 
22 | B22 | > 20 µM | 503 nM | 
